# Measurements: patent publication US20180244785A1 (MERRIMACK PHARMACEUTICALS, published 2018)
# Where a chain is given by its changes, count along the chain named. Where “and” joins values, the source holds several entries; their conditions need not be identical. Identical values can stand only once.
# T1: 6His-Fc-FGFR1c (human, UniProt P11362 141-376)
# T1 construct: not shown: 6His tag and Fc as named in '6His-Fc-FGFR'
# T1 sequence: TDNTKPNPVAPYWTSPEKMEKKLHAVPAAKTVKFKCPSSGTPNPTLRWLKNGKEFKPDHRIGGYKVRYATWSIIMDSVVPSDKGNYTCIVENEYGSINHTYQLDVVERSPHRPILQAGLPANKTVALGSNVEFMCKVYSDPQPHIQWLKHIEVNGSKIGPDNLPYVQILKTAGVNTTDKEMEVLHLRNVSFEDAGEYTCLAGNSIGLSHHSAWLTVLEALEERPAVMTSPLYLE
# T2: recombinant human FGFR3c Fc fusion (human, UniProt P22607 141-372)
# T2 construct: also called FGFR3IIIc; not shown: Fc part of the FGFR-Fc fusion
# T2 sequence: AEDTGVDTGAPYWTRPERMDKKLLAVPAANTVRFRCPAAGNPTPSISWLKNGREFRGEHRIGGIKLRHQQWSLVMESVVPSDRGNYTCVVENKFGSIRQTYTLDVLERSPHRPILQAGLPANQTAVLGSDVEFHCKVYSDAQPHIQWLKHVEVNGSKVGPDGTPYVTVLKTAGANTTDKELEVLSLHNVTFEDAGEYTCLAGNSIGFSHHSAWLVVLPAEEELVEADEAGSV
# T3: recombinant human FGFR1c Fc fusion (human, UniProt P11362 141-376)
# T3 construct: also called FGFR1IIIc; not shown: Fc part of the FGFR-Fc fusion
# T3 sequence: T1 sequence
# T4: recombinant human FGFR4 Fc fusion (human, UniProt P22455 144-369)
# T4 construct: 19 used; also called FGFR4c; not shown: Fc part of the FGFR-Fc fusion
# T4 sequence: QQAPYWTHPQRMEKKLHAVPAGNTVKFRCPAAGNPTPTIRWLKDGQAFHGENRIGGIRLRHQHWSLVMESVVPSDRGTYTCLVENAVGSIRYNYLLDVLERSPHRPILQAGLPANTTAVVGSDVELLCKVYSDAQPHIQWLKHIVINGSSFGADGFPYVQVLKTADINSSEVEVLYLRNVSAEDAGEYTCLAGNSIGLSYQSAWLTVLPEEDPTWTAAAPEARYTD
# T5: soluble FGFR3c receptor protein (human, UniProt P22607 141-372)
# T5 sequence: T2 sequence
# T6: soluble FGFR4 receptor protein (human, UniProt P22455 144-369)
# T6 sequence: T4 sequence
# T7: soluble FGFR1c receptor protein (human, UniProt P11362 141-376)
# T7 sequence: T1 sequence
# T8: 6His-Fc-FGFR4 (human, UniProt P22455 144-369)
# T8 construct: not shown: 6His tag and Fc as named in '6His-Fc-FGFR'
# T8 sequence: T4 sequence
# B1: Ab15 (antibody, human IgG2, kappa, V domains shown)
# VH: EVQLLESGGGVVQPGRSLRLSCAASGFTFSSYAMHWVRQAPGKGLEWVAVISYDGSNKYYADSVKGRFTISRDNSKNTLSLQMNSLRVEDTAIYYCVRGAGRGYTYGPDGFDIWGQGTMVTVSS
# VL: DIVMTQTPLSLSVTPGQPASISCTSSRSLLHSDGKTYVYWYVQKSGQPPQLLIYELSNRFSGVPDRFSGSGSRTDFTLKISRVEAEDVGVYYCMQYIEAPLTFGGGTKVEIKR
# notes: Format in each assay not spelled out; also called FGF#26
# B2: Ab23 (antibody, human IgG2, V domains shown)
# VH: B1 VH with Y104L
# VL: DIVMTQTPLSLSVTPGQPASISCKSSRSLLHSDGKTYVYWYVQKSGQPPQLLIYELSNRFSGVPDRFSGSGSRTDFTLKISRVEAEDVGVYYCMQYIEAPLTFGGGTKVEIK
# notes: Format in the assays not spelled out
# B3: Ab32 (antibody, human IgG2, kappa, V domains shown)
# VH: B1 VH with R102L, Y104F
# VL: B1 VL with I97V
# notes: format in the assays not spelled out
# B4: Ab16 (antibody, human IgG2, kappa, V domains shown)
# VH: B1 VH with Y106R
# VL: B1 VL with T24K
# notes: as for B3
# B5: Ab25 (antibody, human IgG2, kappa, V domains shown)
# VH: B1 VH with R102L, Y104F
# VL: B1 VL with T24K
# notes: as for B3
# B6: Ab19 (antibody, human IgG2, kappa, V domains shown)
# VH: B1 VH with Y104F, Y106L
# VL: B1 VL with T24K
# notes: as for B3
# B7: Ab27 (antibody, human IgG2, kappa, V domains shown)
# VH: B1 VH with Y106L
# VL: B1 VL with T24K
# notes: as for B3
# B8: Ab21 (antibody, human IgG2, kappa, V domains shown)
# VH: B1 VH with R102L, Y104W, T105P
# VL: B1 VL with T24K
# notes: as for B3
# B9: Ab60 (antibody, human IgG2, kappa, V domains shown)
# VH: B1 VH with T28D, S30A, S31G, Y104L
# VL: B1 VL
# notes: as for B3
# B10: Ab31 (antibody, human IgG2, kappa, V domains shown)
# VH: B1 VH with Y104L
# VL: B1 VL with I97V
# notes: as for B3
# B11: Ab34 (antibody, human IgG2, kappa, V domains shown)
# VH: B1 VH with Y106R
# VL: B1 VL with I97V
# notes: as for B3
# B12: Ab29 (antibody, human IgG2, kappa, V domains shown)
# VH: B1 VH with R102L, Y104W, T105P
# VL: B1 VL with I97V
# notes: as for B3
# Biological target: FGFR1 on tumour cells (UniProt P11362 22-822)
# Sequence (P11362 22-822): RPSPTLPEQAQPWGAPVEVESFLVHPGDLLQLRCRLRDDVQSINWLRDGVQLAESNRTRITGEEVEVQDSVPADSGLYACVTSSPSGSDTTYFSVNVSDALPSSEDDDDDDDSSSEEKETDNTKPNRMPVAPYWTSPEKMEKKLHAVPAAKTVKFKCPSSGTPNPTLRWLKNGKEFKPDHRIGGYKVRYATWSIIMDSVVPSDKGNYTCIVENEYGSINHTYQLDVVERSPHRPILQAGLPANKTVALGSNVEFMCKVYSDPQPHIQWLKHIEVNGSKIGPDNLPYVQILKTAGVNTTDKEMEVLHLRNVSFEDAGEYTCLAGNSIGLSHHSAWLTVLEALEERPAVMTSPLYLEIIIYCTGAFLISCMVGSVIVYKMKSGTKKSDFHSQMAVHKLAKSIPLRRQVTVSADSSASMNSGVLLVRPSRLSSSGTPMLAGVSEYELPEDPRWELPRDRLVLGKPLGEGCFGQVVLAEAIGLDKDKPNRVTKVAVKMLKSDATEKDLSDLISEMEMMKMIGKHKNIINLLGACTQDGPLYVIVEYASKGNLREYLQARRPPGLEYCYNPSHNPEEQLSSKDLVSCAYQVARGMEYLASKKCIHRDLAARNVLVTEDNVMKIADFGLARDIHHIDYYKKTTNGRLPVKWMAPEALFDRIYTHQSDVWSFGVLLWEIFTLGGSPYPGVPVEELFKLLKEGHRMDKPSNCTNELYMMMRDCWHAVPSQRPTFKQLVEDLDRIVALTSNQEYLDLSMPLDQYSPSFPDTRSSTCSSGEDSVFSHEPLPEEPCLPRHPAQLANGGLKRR
# Assay: cell-based or functional assay
row,Binder,IC50 of pERK inhibition (AlphaScreen SureFire) in NCI-H1581 cells
1,B1,4.12 nM
2,B2,3.04 nM
3,B3,2.55 nM
4,B4,3.88 nM
5,B5,1.64 nM
6,B6,1.01 nM
7,B7,1.77 nM
8,B8,1.31 nM
9,B9,0.385 nM
10,B10,2.72 nM
11,B11,4.83 nM
12,B12,0.54 nM

# Biological target: T1, 6His-Fc-FGFR1c
# Assay: competition ELISA, blocks 6His-Fc-FGFR1c binding to coated FGF2
# Procedure: (§1) ELISA plates were coated with 50 ug/ml Heparin Sulfate (HSPG) (Sigma Aldrich) and incubated overnight at room temperature. Plates were then washed extensively with PBS containing 0.05% v/v Tween20 (PBST). Plates were then blocked with 2.5% BSA in PBST for one hour and washed extensively as before. 40-60 μL of FGF1 or FGF2 was then added to each well at 40 μg/ml and allowed to bind at room temperature for 2 hours. Plates were then washed extensively with PBST as before. Stock solutions of each 6His-Fc-FGFR (FGFR1-4) were prepared at 500 ng/ml in 2% v/v BSA-PBST and each antibody was prepared as a 2×-dilution series in 2% v/v BSA-PBST. Antibodies dilution series and 6His-Fc-FGFR1-4 were diluted in a 1:1 fashion and immediately added to the relative wells of the plate and allowed to bind for 2 hours at room temperature. Plates were washed extensively as before with PBST and the remaining fraction of bound 6His-Fc-FGFR was detected using a polyclonal-anti-His-6-HRP conjugated antibody (Abcam) for one hour at room temperature. After extensive washing with PBST, 50 μl of Pierce Chemiluminescent substrate (Thermo Fisher Scientific, Rockford, USA) was added and plates were measured on an Envision plate reader (Perkin Elmer). Raw data was background corrected and plotted using Prism software. […]
row,Binder,IC50
1,B1,3.35 nM
2,B2,4.52 nM
3,B3,4.29 nM
4,B4,6.28 nM
5,B5,4.95 nM
6,B6,2.03 nM
7,B7,5.45 nM
8,B8,5.54 nM
9,B9,3.83 nM
10,B10,5.21 nM
11,B11,5.23 nM
12,B12,4.19 nM

# Biological target: T2, recombinant human FGFR3c Fc fusion
# Assay: solid phase ELISA on coated FGFR-Fc
# Procedure: (§2) For the ELISA assay, the ability of each mAb to cross react with the […] FGF receptors was tested across a concentration curve in order to determine the relative binding across FGFR1-4. FGFR2IIIb was used as a negative control. Black 384-well Maxisorp plates were coated overnight with FGFR-Fc fusions in PBS to 1 ug/ml before washing and blocking with 75 ul/well Pierce Protein Free (PBS) Blocking Buffer for 1 hour at RT. Antibody dilutions were prepared freshly in 1% BSA- PBS+0.05% Tween20 and 25 ul of each antibody was added to wells in duplicate. Plates were incubated at RT for 2 hours, followed by addition of detection antibody at 50 ng/ml in 1% BSA PBS, 0.05% Tween20. ECL substrate (Pierce) was added and plates were read on the EnVision plate reader.
row,Binder,EC50
1,B1,0.129 nM
2,B6,0.0745 nM
3,B9,0.0687 nM

# Biological target: T3, recombinant human FGFR1c Fc fusion
# Assay: solid phase ELISA on coated FGFR-Fc
# Procedure: as §2
row,Binder,EC50
1,B1,0.0112 nM
2,B6,0.00674 nM
3,B9,0.0117 nM

# Biological target: T4, recombinant human FGFR4 Fc fusion
# Assay: solid phase ELISA on coated FGFR-Fc
# Procedure: as §2
row,Binder,EC50
1,B1,7.56 nM
2,B6,38.2 nM
3,B9,0.31 nM

# Biological target: T9, recombinant human FGFR2c Fc fusion (human, UniProt P21802 148-377)
# T9 construct: also called FGFR2IIIc; not shown: Fc part of the FGFR-Fc fusion
# T9 sequence (P21802 148-377): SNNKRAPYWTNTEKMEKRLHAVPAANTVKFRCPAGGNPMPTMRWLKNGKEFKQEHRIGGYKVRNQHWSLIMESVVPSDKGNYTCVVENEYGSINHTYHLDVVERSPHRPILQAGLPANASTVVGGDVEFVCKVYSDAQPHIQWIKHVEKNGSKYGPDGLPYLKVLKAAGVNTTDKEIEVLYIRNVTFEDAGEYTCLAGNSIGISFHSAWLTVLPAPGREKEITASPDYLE
# Assay: solid phase ELISA on coated FGFR-Fc
# Procedure: as §2
row,Binder,EC50
1,B1,0.0147 nM
2,B6,0.0127 nM
3,B9,0.0224 nM

# Biological target: T5, soluble FGFR3c receptor protein
# Assay: BLI Octet RED96, antibody on anti-hIgG Fc tip
# Procedure: (§3) Briefly, the Pall ForteBio Octet RED96 Bio-Layer Interferometry system was used to determine the specificity of anti-FGFR antibodies for FGFR1c, FGFR2c, FGFR3c, and FGFR4. The antibodies and soluble receptor proteins were prepared in PBS at a concentration of 300 nM. First, the candidate antibodies were immobilized on the surface of anti-human IgG Fc biosensor tips for 120 seconds. After immobilization, the biosensors were dipped in PBS solution for 60 seconds (baseline step) to assess assay drift, and determine loading level of antibodies. The baseline step was followed by an association step of 300 seconds wherein the binding interaction between the immobilized antibodies and soluble receptors was measured. Following the association step, the biosensors were dipped into PBS buffer for 600 seconds to measure the dissociation of the bound receptor proteins from the immobilized antibodies. Each binding response was measured and reported real time on a sensorgram trace. For data analysis, a simple 1:1 binding model was used which measures the rate of complex formation of one immobilized antibody and one soluble receptor protein.
Binder,Kd,koff,kon
B1,8.42 nM and 8.59 nM and 8.21 nM,0.00108 s⁻¹ and 0.00105 s⁻¹ and 0.00102 s⁻¹,121000 M⁻¹ s⁻¹ and 123000 M⁻¹ s⁻¹ and 124000 M⁻¹ s⁻¹
B6,6.29 nM,0.000983 s⁻¹,151000 M⁻¹ s⁻¹
B9,15.4 nM,0.00239 s⁻¹,154000 M⁻¹ s⁻¹

# Biological target: soluble FGFR2c receptor protein (human, UniProt P21802 148-377)
# Sequence (P21802 148-377): as above
# Assay: BLI Octet RED96, antibody on anti-hIgG Fc tip
# Procedure: as §3
Binder,Kd,koff,kon
B1,10.3 nM and 11.8 nM and 11.5 nM,0.00193 s⁻¹ and 0.00234 s⁻¹ and 0.00235 s⁻¹,183000 M⁻¹ s⁻¹ and 199000 M⁻¹ s⁻¹ and 205000 M⁻¹ s⁻¹
B6,6.61 nM,0.00167 s⁻¹,252000 M⁻¹ s⁻¹
B9,6.93 nM,0.00188 s⁻¹,254000 M⁻¹ s⁻¹

# Biological target: T6, soluble FGFR4 receptor protein
# Assay: BLI Octet RED96, antibody on anti-hIgG Fc tip
# Procedure: as §3
Binder,Kd,koff,kon
B1,11.2 nM and 7.35 nM and 7.88 nM,0.00124 s⁻¹ and 0.00091 s⁻¹ and 0.00101 s⁻¹,98200 M⁻¹ s⁻¹ and 124000 M⁻¹ s⁻¹ and 128000 M⁻¹ s⁻¹
B6,8.63 nM,0.0012 s⁻¹,125000 M⁻¹ s⁻¹
B9,12.5 nM,0.00169 s⁻¹,117000 M⁻¹ s⁻¹

# Biological target: T7, soluble FGFR1c receptor protein
# Assay: BLI Octet RED96, antibody on anti-hIgG Fc tip
# Procedure: as §3
Binder,Kd,kon,koff
B1,13.7 nM and 4.72 nM and 7.39 nM,76500 M⁻¹ s⁻¹ and 48900 M⁻¹ s⁻¹ and 44600 M⁻¹ s⁻¹,
B6,8.85 nM,91600 M⁻¹ s⁻¹,0.000967 s⁻¹
B9,14.5 nM,111000 M⁻¹ s⁻¹,0.00165 s⁻¹

# Biological target: T8, 6His-Fc-FGFR4
# Assay: competition ELISA, blocks 6His-Fc-FGFR4 binding to coated FGF2
# Procedure: as §1
row,Binder,IC50
1,B1,25.7 nM
2,B2,23.8 nM
3,B3,11.5 nM
4,B4,40.1 nM
5,B5,11.6 nM
6,B6,11.8 nM
7,B7,30.1 nM
8,B8,9.96 nM
9,B9,~7.32 nM
10,B10,22.2 nM
11,B11,14.3 nM
12,B12,5.41 nM
